{
  "source": "IntAct's records for PubMed 25619834",
  "parents": {"B1": {"name": "Influenza virus NS1A-binding protein (Homo sapiens), Q9Y6Y0 (parent)", "chain": "MIPNGYLMFEDENFIESSVAKLNALRKSGQFCDVRLQVCGHEMLAHRAVLACCSPYLFEIFNSDSDPHGISHVKFDDLNPEAVEVLLNYAYTAQLKADKELVKDVYSAAKKLKMDRVKQVCGDYLLSRMDVTSCISYRNFASCMGDSRLLNKVDAYIQEHLLQISEEEEFLKLPRLKLEVMLEDNVCLPSNGKLYTKVINWVQRSIWENGDSLEELMEEVQTLYYSADHKLLDGNLLDGQAEVFGSDDDHIQFVQKKPPRENGHKQISSSSTGCLSSPNATVQSPKHEWKIVASEKTSNNTYLCLAVLDGIFCVIFLHGRNSPQSSPTSTPKLSKSLSFEMQQDELIEKPMSPMQYARSGLGTAEMNGKLIAAGGYNREECLRTVECYNPHTDHWSFLAPMRTPRARFQMAVLMGQLYVVGGSNGHSDDLSCGEMYDSNIDDWIPVPELRTNRCNAGVCALNGKLYIVGGSDPYGQKGLKNCDVFDPVTKLWTSCAPLNIRRHQSAVCELGGYLYIIGGAESWNCLNTVERYNPENNTWTLIAPMNVARRGAGVAVLNGKLFVCGGFDGSHAISCVEMYDPTRNEWKMMGNMTSPRSNAGIATVGNTIYAVGGFDGNEFLNTVEVYNLESNEWSPYTKIFQF"}},
  "data": [
    {"variants_of": "B1", "conditions": "with cul3_human CUL3, Q13618", "values": [
      {"variant": "M114L", "effect of a mutation on the interaction": "causing an interaction"},
      {"variant": "F75L", "effect of a mutation on the interaction": "causing an interaction"}
    ]}
  ]
}
